Measurements taken from the Human Domainome abundance scans (Beltran et al. 2025).

B1: DnaJ homolog subfamily C member 5, residues 16 to 77; numbered along this chain, Q9H3Z4 (parent)
chain: LYHVLGLDKNATSDDIKKSYRKLALKYHPDKNPDNPEAADKFKEINNAHAILTDATKRNIYD

Variants of: B1
Experiment: abundance fitness (aPCA) (normalised: wild type 0, dead -1); higher = more abundant; growth selection in yeast, the domain comes from the species named
Details: Homo sapiens

Abundance fitness: each site, then its substitutions
N32: G -0.434 | P -0.691 | A -0.349 | V -0.396 | W -0.179 | R -0.431 | Y -0.67 | H -0.009 | T -0.251 | K -0.353 | D -0.282 | F -0.24 | L -0.684 | S -0.3 | M -0.157
D34: H -0.411 | Y -0.355 | P -0.623 | E -0.079 | N -0.299 | L -0.641 | R -0.251 | F -1.01 | C -0.783 | G 0.068 | K -0.006 | I -0.586 | Q -0.206 | A -0.145 | T -0.257 | W -0.944 | V -0.591 | M -0.694
K31: N -0.452 | A -0.065 | C -0.64 | S -0.51 | L -0.433 | T -0.139 | H -0.195 | M -0.521 | Y -0.207 | W -0.626 | F -0.371 | I -0.06 | P -0.379 | Q -0.06 | E -0.116 | D -0.118
D30: V -0.207 | S 0.099 | Y -0.288 | W -0.749 | R -0.207 | T 0.067
A38: I -0.043 | D -0.137 | K -0.338 | T -0.292 | R -0.279 | M -0.13 | N -0.296 | H -0.169 | W -0.305 | E -0.193 | P -0.559 | Q -0.371 | F -0.194 | S -0.088 | L -0.243 | Y -0.132 | C -0.401
A39: P -0.301 | F -0.56 | V -0.01 | N 0.003 | Q -0.227 | D 0.033 | Y 0.082 | G -0.032 | T -0.427 | L 0.014 | K 0.095 | I 0.064 | S -0.176 | M -0.126 | C 0.01 | R -0.021 | E -0.14
K41: Q -0.333 | P -1.1 | C -0.598 | R -0.119 | N -0.434 | E -0.311 | F -0.447 | D -0.493 | G -0.433 | I -0.211 | A -0.222
D40: A 0.137 | R 0.271 | E -0.171 | V 0.194 | T 0.054 | M 0.255 | F 0.029 | I 0.224 | K 0.385 | H 0.156 | C -0.012 | Y -0.05 | L 0.212 | P -0.258 | W 0.046 | N -0.271 | Q -0.03
P33: L -0.507 | G 0.111 | Y -0.34 | T -0.098 | M -0.489 | N -0.365 | E -0.035 | I -0.501 | F -0.351 | A -0.032 | H -0.798 | K 0.209 | Q -0.063 | V -0.225 | S -0.121 | R 0.064 | D -0.16 | C -0.327
N35: W -0.317 | V -0.255 | F -0.309 | K -0.194 | H -0.197 | T -0.143 | R -0.282 | S -0.041 | E -0.235 | C -0.462 | M -0.431 | Q -0.265 | G -0.281 | I -0.255 | A -0.184
E37: F -0.01 | Y -0.226 | G -0.063 | D -0.238 | C -0.206 | S 0.036 | N 0.042 | P -0.441 | L -0.172 | Q 0.079 | H 0.004 | V 0.041 | R -0.117 | W -0.171 | T -0.011 | I -0.406 | M -0.217
